Measurements reported in patent US20260115255A1 (CYTUNE PHARMA, published 2026).

What was measured:
FcγRIIIa F158 = target: T1, FcγRIIIa F158 (human, UniProt P08637 17-208); assay: SPR; ratio of affinity (1/Kd) for FcγRIIIa F158 to affinity for FcγRIIb
T1 construct: Captured on the chip through an anti-His tag antibody; construct not described; also called hFcγRIIIaF158; CD16a F158
Description: (§1) SPR experiments were performed on a Biacore 8K (Cytiva, Chicago, IL, USA), using CM5 sensor chips (Cytiva) with an immobilization using THE His tag antibodies (Genscript). FcγRIIIa V158, FcγRIIIa F158 or FcγRIIb protein were used for capture with a contact time of 30 sec at a flow rate of […] in a 1×HBS-EP+ running buffer. Association/dissociation rates were measured for each tested immunocytokine at a flow rate of 30 μl/min with concentration serial dilution in a suitable range with an association time/dissociation time of 300 s/300 s except for constructs with DLE and DE with and without afucosylation, where association/dissociation time of 120 s/1200 s was applied.

FcγRIIIa V158 = target: T2, FcγRIIIa V158 (human, UniProt P08637 17-208); assay: SPR; ratio of affinity (1/Kd) for FcγRIIIa V158 to affinity for FcγRIIb
T2 construct: Captured on the chip through an anti-His tag antibody, so it carries a His tag; construct not described; also called hFcγRIIIaV158; FcγIIIa V158
Description: as §1

B1: hCl1a (antibody)
chain 1: not shown
chain 2: DIQMTQSPSSLSASVGDRVTITCRASEDIYSNLAWYQQKPGKAPKLLIFSVKRLQDGVPSRFSGSGSGTDFTLTISSLQPEDFATYYCLQGSNFPLTFGQGTKVEIKRTVAAPSVFIFPPSDEQLKSGTASVVCLLNNFYPREAKVQWKVDNALQSGNSQESVTEQDSKDSTYSLSSTLTLSKADYEKHKVYACEVTHQGLSSPVTKSFNRGEC
- A/I (F158) (FcγRIIIa F158): 20.6
- A/I (V158) (FcγRIIIa V158): 83.8

B2: hCl1a AAA-RLI DANA afuc (other)
heavy 1: QVQLVQSGAEVKKPGASVKVSCKASGYTFTDYAMHWVRQAPGQRLEWMGWINTYTGKPTYAQKFQGRVTITRDTSASTAYMELSSLRSEDTAVYYCARAVFYGYTMDAWGQGTLVTVSSASTKGPSVFPLAPSSKSTSGGTAALGCLVKDYFPEPVTVSWNSGALTSGVHTFPAVLQSSGLYSLSSVVTVPSSSLGTQTYICNVNHKPSNTKVDKKVEPKSCDKTHTCPPCPAPELLGGPSVFLFPPKPKDTLMISRTPEVTCVVVDVSHEDPEVKFNWYVDGVEVHNAKTKPREEQYNATYRVVSVLTVLHQDWLNGKEYKCKVSNKALPAPIAATISKAKGQPREPQVYTLPPSRDELTKNQVSLWCLVKGFYPSDIAVEWESNGQPENNYKTTPPVLDSDGSFFLYSKLTVDKSRWQQGNVFSCSVMHEALHNHYTQKSLSLSPGITCPPPMSVEHADIWVKSYSLYSRERYICNSGFKRKAGTSSLTECVLNKATNVAHWTTPSLKCIRDPALVHQRPAPPSGGSGGGGSGGGSGGGGSGGNWVNVISDLKKIEDLIQSMHIDATLYTESDVHPSCKVTAMKCFLLELQVISLESGDASIHATVEALIILANNSLSSNAQVTESGCKECEELEEKNIKEFLQSFVHIVQMFINTS
heavy 2: QVQLVQSGAEVKKPGASVKVSCKASGYTFTDYAMHWVRQAPGQRLEWMGWINTYTGKPTYAQKFQGRVTITRDTSASTAYMELSSLRSEDTAVYYCARAVFYGYTMDAWGQGTLVTVSSASTKGPSVFPLAPSSKSTSGGTAALGCLVKDYFPEPVTVSWNSGALTSGVHTFPAVLQSSGLYSLSSVVTVPSSSLGTQTYICNVNHKPSNTKVDKKVEPKSCDKTHTCPPCPAPELLGGPSVFLFPPKPKDTLMISRTPEVTCVVVDVSHEDPEVKFNWYVDGVEVHNAKTKPREEQYNATYRVVSVLTVLHQDWLNGKEYKCKVSNKALPAPIAATISKAKGQPREPQVYTLPPSRDELTKNQVSLSCAVKGFYPSDIAVEWESNGQPENNYKTTPPVLDSDGSFFLVSKLTVDKSRWQQGNVFSCSVMHEALHNHYTQKSLSLSPG
light: DIQMTQSPSSLSASVGDRVTITCRASEDIYSNLAWYQQKPGKAPKLLIFSVKRLQDGVPSRFSGSGSGTDFTLTISSLQPEDFATYYCLQGSNFPLTFGQGTKVEIKRTVAAPSVFIFPPSDEQLKSGTASVVCLLNNFYPREAKVQWKVDNALQSGNSQESVTEQDSKDSTYSLSSTLTLSKADYEKHKVYACEVTHQGLSSPVTKSFNRGEC
modifications: Afucosylated Fc N-glycan (N297, both heavy chains); the letters cannot carry it.
notes: Same chains as m6, afucosylated; copies: 1 + 1 + 2
- A/I (F158) (FcγRIIIa F158): 380
- A/I (V158) (FcγRIIIa V158): 1010

B3: hCl1a AAA-RLI DANA (other)
heavy 1: QVQLVQSGAEVKKPGASVKVSCKASGYTFTDYAMHWVRQAPGQRLEWMGWINTYTGKPTYAQKFQGRVTITRDTSASTAYMELSSLRSEDTAVYYCARAVFYGYTMDAWGQGTLVTVSSASTKGPSVFPLAPSSKSTSGGTAALGCLVKDYFPEPVTVSWNSGALTSGVHTFPAVLQSSGLYSLSSVVTVPSSSLGTQTYICNVNHKPSNTKVDKKVEPKSCDKTHTCPPCPAPELLGGPSVFLFPPKPKDTLMISRTPEVTCVVVDVSHEDPEVKFNWYVDGVEVHNAKTKPREEQYNATYRVVSVLTVLHQDWLNGKEYKCKVSNKALPAPIAATISKAKGQPREPQVYTLPPSRDELTKNQVSLWCLVKGFYPSDIAVEWESNGQPENNYKTTPPVLDSDGSFFLYSKLTVDKSRWQQGNVFSCSVMHEALHNHYTQKSLSLSPGITCPPPMSVEHADIWVKSYSLYSRERYICNSGFKRKAGTSSLTECVLNKATNVAHWTTPSLKCIRDPALVHQRPAPPSGGSGGGGSGGGSGGGGSGGNWVNVISDLKKIEDLIQSMHIDATLYTESDVHPSCKVTAMKCFLLELQVISLESGDASIHATVEALIILANNSLSSNAQVTESGCKECEELEEKNIKEFLQSFVHIVQMFINTS
heavy 2: QVQLVQSGAEVKKPGASVKVSCKASGYTFTDYAMHWVRQAPGQRLEWMGWINTYTGKPTYAQKFQGRVTITRDTSASTAYMELSSLRSEDTAVYYCARAVFYGYTMDAWGQGTLVTVSSASTKGPSVFPLAPSSKSTSGGTAALGCLVKDYFPEPVTVSWNSGALTSGVHTFPAVLQSSGLYSLSSVVTVPSSSLGTQTYICNVNHKPSNTKVDKKVEPKSCDKTHTCPPCPAPELLGGPSVFLFPPKPKDTLMISRTPEVTCVVVDVSHEDPEVKFNWYVDGVEVHNAKTKPREEQYNATYRVVSVLTVLHQDWLNGKEYKCKVSNKALPAPIAATISKAKGQPREPQVYTLPPSRDELTKNQVSLSCAVKGFYPSDIAVEWESNGQPENNYKTTPPVLDSDGSFFLVSKLTVDKSRWQQGNVFSCSVMHEALHNHYTQKSLSLSPG
light: DIQMTQSPSSLSASVGDRVTITCRASEDIYSNLAWYQQKPGKAPKLLIFSVKRLQDGVPSRFSGSGSGTDFTLTISSLQPEDFATYYCLQGSNFPLTFGQGTKVEIKRTVAAPSVFIFPPSDEQLKSGTASVVCLLNNFYPREAKVQWKVDNALQSGNSQESVTEQDSKDSTYSLSSTLTLSKADYEKHKVYACEVTHQGLSSPVTKSFNRGEC
notes: See note of m4; also called SOT202-AAA-DANA; copies: 1 + 1 + 2
- A/I (F158) (FcγRIIIa F158): 244
- A/I (V158) (FcγRIIIa V158): 691

B4: hCl1a DLE-RLI DANA (other)
heavy 1: QVQLVQSGAEVKKPGASVKVSCKASGYTFTDYAMHWVRQAPGQRLEWMGWINTYTGKPTYAQKFQGRVTITRDTSASTAYMELSSLRSEDTAVYYCARAVFYGYTMDAWGQGTLVTVSSASTKGPSVFPLAPSSKSTSGGTAALGCLVKDYFPEPVTVSWNSGALTSGVHTFPAVLQSSGLYSLSSVVTVPSSSLGTQTYICNVNHKPSNTKVDKKVEPKSCDKTHTCPPCPAPELLGGPDVFLFPPKPKDTLMISRTPEVTCVVVDVSHEDPEVKFNWYVDGVEVHNAKTKPREEQYNSTYRVVSVLTVLHQDWLNGKEYKCKVSNKALPLPEEKTISKAKGQPREPQVYTLPPSRDELTKNQVSLWCLVKGFYPSDIAVEWESNGQPENNYKTTPPVLDSDGSFFLYSKLTVDKSRWQQGNVFSCSVMHEALHNHYTQKSLSLSPGITCPPPMSVEHADIWVKSYSLYSRERYICNSGFKRKAGTSSLTECVLNKATNVAHWTTPSLKCIRDPALVHQRPAPPSGGSGGGGSGGGSGGGGSGGNWVNVISDLKKIEDLIQSMHIDATLYTESDVHPSCKVTAMKCFLLELQVISLESGDASIHATVEALIILANNSLSSNAQVTESGCKECEELEEKNIKEFLQSFVHIVQMFINTS
heavy 2: QVQLVQSGAEVKKPGASVKVSCKASGYTFTDYAMHWVRQAPGQRLEWMGWINTYTGKPTYAQKFQGRVTITRDTSASTAYMELSSLRSEDTAVYYCARAVFYGYTMDAWGQGTLVTVSSASTKGPSVFPLAPSSKSTSGGTAALGCLVKDYFPEPVTVSWNSGALTSGVHTFPAVLQSSGLYSLSSVVTVPSSSLGTQTYICNVNHKPSNTKVDKKVEPKSCDKTHTCPPCPAPELLGGPDVFLFPPKPKDTLMISRTPEVTCVVVDVSHEDPEVKFNWYVDGVEVHNAKTKPREEQYNSTYRVVSVLTVLHQDWLNGKEYKCKVSNKALPLPEEKTISKAKGQPREPQVYTLPPSRDELTKNQVSLSCAVKGFYPSDIAVEWESNGQPENNYKTTPPVLDSDGSFFLVSKLTVDKSRWQQGNVFSCSVMHEALHNHYTQKSLSLSPG
light: DIQMTQSPSSLSASVGDRVTITCRASEDIYSNLAWYQQKPGKAPKLLIFSVKRLQDGVPSRFSGSGSGTDFTLTISSLQPEDFATYYCLQGSNFPLTFGQGTKVEIKRTVAAPSVFIFPPSDEQLKSGTASVVCLLNNFYPREAKVQWKVDNALQSGNSQESVTEQDSKDSTYSLSSTLTLSKADYEKHKVYACEVTHQGLSSPVTKSFNRGEC
notes: also called SOT202-DLE-DANA; copies: 1 + 1 + 2
- A/I (F158) (FcγRIIIa F158): 228
- A/I (V158) (FcγRIIIa V158): 464

B5: hCl1a DLE-RLI DANA afuc (other)
heavy 1: QVQLVQSGAEVKKPGASVKVSCKASGYTFTDYAMHWVRQAPGQRLEWMGWINTYTGKPTYAQKFQGRVTITRDTSASTAYMELSSLRSEDTAVYYCARAVFYGYTMDAWGQGTLVTVSSASTKGPSVFPLAPSSKSTSGGTAALGCLVKDYFPEPVTVSWNSGALTSGVHTFPAVLQSSGLYSLSSVVTVPSSSLGTQTYICNVNHKPSNTKVDKKVEPKSCDKTHTCPPCPAPELLGGPDVFLFPPKPKDTLMISRTPEVTCVVVDVSHEDPEVKFNWYVDGVEVHNAKTKPREEQYNSTYRVVSVLTVLHQDWLNGKEYKCKVSNKALPLPEEKTISKAKGQPREPQVYTLPPSRDELTKNQVSLWCLVKGFYPSDIAVEWESNGQPENNYKTTPPVLDSDGSFFLYSKLTVDKSRWQQGNVFSCSVMHEALHNHYTQKSLSLSPGITCPPPMSVEHADIWVKSYSLYSRERYICNSGFKRKAGTSSLTECVLNKATNVAHWTTPSLKCIRDPALVHQRPAPPSGGSGGGGSGGGSGGGGSGGNWVNVISDLKKIEDLIQSMHIDATLYTESDVHPSCKVTAMKCFLLELQVISLESGDASIHATVEALIILANNSLSSNAQVTESGCKECEELEEKNIKEFLQSFVHIVQMFINTS
heavy 2: QVQLVQSGAEVKKPGASVKVSCKASGYTFTDYAMHWVRQAPGQRLEWMGWINTYTGKPTYAQKFQGRVTITRDTSASTAYMELSSLRSEDTAVYYCARAVFYGYTMDAWGQGTLVTVSSASTKGPSVFPLAPSSKSTSGGTAALGCLVKDYFPEPVTVSWNSGALTSGVHTFPAVLQSSGLYSLSSVVTVPSSSLGTQTYICNVNHKPSNTKVDKKVEPKSCDKTHTCPPCPAPELLGGPDVFLFPPKPKDTLMISRTPEVTCVVVDVSHEDPEVKFNWYVDGVEVHNAKTKPREEQYNSTYRVVSVLTVLHQDWLNGKEYKCKVSNKALPLPEEKTISKAKGQPREPQVYTLPPSRDELTKNQVSLSCAVKGFYPSDIAVEWESNGQPENNYKTTPPVLDSDGSFFLVSKLTVDKSRWQQGNVFSCSVMHEALHNHYTQKSLSLSPG
light: DIQMTQSPSSLSASVGDRVTITCRASEDIYSNLAWYQQKPGKAPKLLIFSVKRLQDGVPSRFSGSGSGTDFTLTISSLQPEDFATYYCLQGSNFPLTFGQGTKVEIKRTVAAPSVFIFPPSDEQLKSGTASVVCLLNNFYPREAKVQWKVDNALQSGNSQESVTEQDSKDSTYSLSSTLTLSKADYEKHKVYACEVTHQGLSSPVTKSFNRGEC
modifications: Afucosylated Fc N-glycan (N297, both heavy chains); the letters cannot carry it.
notes: Same chains as m4, afucosylated; copies: 1 + 1 + 2
- A/I (F158) (FcγRIIIa F158): 9370
- A/I (V158) (FcγRIIIa V158): 13700
